# Test results from patent publication EP0797662B1 (NEW YORK UNIVERSITY, dated 1995).
# B1: GST fusion protein of the GRB-7 SH2 domain (amino acids 419-535) in pGSTag (other, mouse, UniProt Q03160 419-535, looked up)
# chain: CSGSSLSAAIHRTQPWFHGRISREESQRLIGQQGLVDGVFLVRESQRNPQGFVLSLCHLQKVKHYLILPSEDEGCLYFSMDEGQTRFTDLLQLVEFHQLNRGILPCLLRHCCARVAL
# modifications: 32P-phosphate at the protein kinase A site of the vector when used as the probe
# notes: range 419-535; also called GST-GRB-7-SH2; [32P]GRB-7 SH2 domain; not shown: glutathione S-transferase of the pGSTag vector; protein kinase A phosphorylation site and linker of pGSTag
# Biological target: T1, SHC (54 kDa band, in lysates of NIH 3T3 cells expressing the EGFR/HER2 chimera) (mouse, UniProt P98083-2 1-469, limits assumed, tyrosine phosphorylated after EGF stimulation)
# T1 sequence (looked up): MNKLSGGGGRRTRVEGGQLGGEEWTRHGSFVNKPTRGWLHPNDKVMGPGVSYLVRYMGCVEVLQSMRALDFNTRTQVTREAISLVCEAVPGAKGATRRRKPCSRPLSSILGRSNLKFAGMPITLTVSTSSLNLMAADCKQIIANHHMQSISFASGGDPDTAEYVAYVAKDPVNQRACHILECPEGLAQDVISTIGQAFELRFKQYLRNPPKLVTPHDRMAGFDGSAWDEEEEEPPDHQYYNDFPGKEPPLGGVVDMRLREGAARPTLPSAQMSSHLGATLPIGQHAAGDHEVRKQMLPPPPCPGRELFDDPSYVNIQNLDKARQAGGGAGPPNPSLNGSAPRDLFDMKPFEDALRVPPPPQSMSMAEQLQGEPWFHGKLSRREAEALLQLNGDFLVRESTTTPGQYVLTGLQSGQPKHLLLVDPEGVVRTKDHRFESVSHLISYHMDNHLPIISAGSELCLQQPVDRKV
# Assay: blot of lysate of NIH 3T3 cells with the chimera probed with 32P-labelled GST-GRB-7 SH2
binder,measurement,value
B1,binding result,binds
